The RNAGym collection of RNA variant scans (doi:10.7554/elife.80360)

B1: HDV Ribozyme (parent)
chain: GGCCGGCAUGGUCCCAGCCUCCUCGCUGGCGCCGGCUGGGCAACAUUCCGAGGGGACCGUCCCCUCGGUAAUGGCGAAUGGGACCCA

Variants of: B1
Test: self-cleavage, relative activity (ratio to wild type); higher = more cleavage; co-transcriptional
Variant GGCCGGCCUGGUCCCAGCCUCCUCGCUGGCGCCGGCGGGGCAACAUUCCGAGGGGACCGUCCCCUCGGUAAUGGCGAAUGGGACCCA [A8C U37G] has a self-cleavage of 0.166.
With GGCCGGCCUGGUCCCAGCCCCCUCGCUGGCGCCGGCUGGGCAACAUUCCGAGGGGACCGUCCCCUCGGUAAUGGCGAAUGGGACCCA [A8C U20C] the self-cleavage was 0.
GGCCGGCCUGGUCCCAGCCUCCUCGCUGGCGCCGGCUGGGCAACAUUCCGAGGGGACCGUCCCCUCCGUAAUGGCGAAUGGGACCCA [A8C G67C] showed a self-cleavage of 0.623.
GGCCGGCCUGGUCCCAGCCUCCUCGCUGGCGCCGGCUGGGCAACAUUCCGAGGGGACCGUCCCCUCAGUAAUGGCGAAUGGGACCCA [A8C G67A] showed a self-cleavage of 0.898.
GGCCGGCCUGGUCCCAGCCUCCUCGCUGGCGCCGGCUGGGCAACAUUCCGAGGGGACCGUCCCCUCUGUAAUGGCGAAUGGGACCCA [A8C G67U] gave a self-cleavage of 0.739.
With GGCCGGCCUGGUCCCAGCCUCCUCGCGGGCGCCGGCUGGGCAACAUUCCGAGGGGACCGUCCCCUCGGUAAUGGCGAAUGGGACCCA [A8C U27G] the self-cleavage was 0.88.
In the case of GGCCGGCCUGGUCCCAGCCUCCUCGCCGGCGCCGGCUGGGCAACAUUCCGAGGGGACCGUCCCCUCGGUAAUGGCGAAUGGGACCCA [A8C U27C], the self-cleavage is reported as 0.739.
Work on GGCCGGCCUGGUCCCAGCCUCCUCGCUGGCGCCGGCUGGGCAACAUUCCGAGGGGACCCUCCCCUCGGUAAUGGCGAAUGGGACCCA [A8C G59C] yielded a self-cleavage of 0.923.
For GGCCGGCCUGGUCCCAGCCUCCUCGCUGGCGCCGGCUGGGCAACAUUCCGAGGGGACCAUCCCCUCGGUAAUGGCGAAUGGGACCCA [A8C G59A], the self-cleavage was 1.07.
GGCCGGCCUGGUCCCAGCCUCCUCGCUGGCGCCGGCUGGGCAACAUUCCGAGGGGACCGUCCCCUCGGUAAUGUCGAAUGGGACCCA [A8C G74U] showed a self-cleavage of 0.475.
GGCCGGCCUGGUCCCAGCCUCCUCGCUGGCGCCGGCUGGGCAACAUUCCGAGGGGACCGUCCCCUCGGUAAUGCCGAAUGGGACCCA [A8C G74C] gave a self-cleavage of 0.269.
In the case of GGCCGGCCUGGUCCCAGCCUCCUCGCUGGCGCCGGCUGGGCAACAUUCCGAGGCGACCGUCCCCUCGGUAAUGGCGAAUGGGACCCA [A8C G54C], the self-cleavage is reported as 0.746.
With GGCCGGCCUGGUCCCAGCCUCCUCGCUGGCGCCGGCUGGGCAACACUCCGAGGGGACCGUCCCCUCGGUAAUGGCGAAUGGGACCCA [A8C U46C] the self-cleavage was 0.615.
Work on GGCCGGCCUGGUCCCAGCCUCCUCGCUGGCGCCGGCUGGGCAACAUUCCGAGGGGACCGUCCCCUCGGUAAUGGCGAAUGCGACCCA [A8C G81C] yielded a self-cleavage of 0.166.
Variant GGCCGGCCUGGUCCCAGCCUCCUCGCUGGCGCCGGCUGGGCAACAUUCCGAGGGGACCGUCCCCUCGGUAAUGGCGAAUGUGACCCA [A8C G81U] has a self-cleavage of 0.201.
Variant GGCCGGCCUGGUCCCAGCCUCCUCGCUGGCGCCGGCUGGGCAACAUUCCGAGGGGACCGUCCCCUCGGUAAUGGCGAAUAGGACCCA [A8C G80A] has a self-cleavage of 0.326.
GGCCGGCCUGGUCCCAGCCUCCUCGCUGGCGCCGGCUGGGCAACAUUCCGAGGGGACCGUCCCCUCGGUAAUGGCGAAUUGGACCCA [A8C G80U] showed a self-cleavage of 0.07.
Work on GGCCGGCCAGGUCCCAGCCUCCUCGCUGGCGCCGGCUGGGCAACAUUCCGAGGGGACCGUCCCCUCGGUAAUGGCGAAUGGGACCCA [A8C U9A] yielded a self-cleavage of 0.755.
GGCCGGCCCGGUCCCAGCCUCCUCGCUGGCGCCGGCUGGGCAACAUUCCGAGGGGACCGUCCCCUCGGUAAUGGCGAAUGGGACCCA [A8C U9C] gave a self-cleavage of 0.962.
Work on GGCCGGCCGGGUCCCAGCCUCCUCGCUGGCGCCGGCUGGGCAACAUUCCGAGGGGACCGUCCCCUCGGUAAUGGCGAAUGGGACCCA [A8C U9G] yielded a self-cleavage of 0.692.
Work on GGCCGGCCUGGUCCCAGCCUCCUCGCUGGCGCCGGCUGGGCAACAUUCCGAGGGGACCGUCCCCUCGGUAAUGGCUAAUGGGACCCA [A8C G76U] yielded a self-cleavage of 0.785.
Work on GGCCGGCCUGGUCCCAGCCUCCUCGCUGGCGCCGGCUGGGCAACAUUCCGAGGGGACCGUCCCCUCGGUAAUGGCAAAUGGGACCCA [A8C G76A] yielded a self-cleavage of 0.95.
GGCCGGCCUGGUCCCAGCCUCCUCGCUGGCGCCGGCUGGGCAACAUUCCGAGGGGACCGUCCCCUCGUUAAUGGCGAAUGGGACCCA [A8C G68U] gave a self-cleavage of 0.943.
GGCCGGCCUGGUCCCAGCCUCCUCGCUGGCGCCGGCUGGGCAACAUUCCGAGGGGACCGUCCCCUCGAUAAUGGCGAAUGGGACCCA [A8C G68A] showed a self-cleavage of 0.554.
Variant GGCCGGCCUGGUCCCAGCCUCCUCGCUGGCGCCGGCUGGGCAACAUUCCGAGGGGACCGUCCCCUCGGUAAUCGCGAAUGGGACCCA [A8C G73C] has a self-cleavage of 0.115.
Work on GGCCGGCCUGGGCCCAGCCUCCUCGCUGGCGCCGGCUGGGCAACAUUCCGAGGGGACCGUCCCCUCGGUAAUGGCGAAUGGGACCCA [A8C U12G] yielded a self-cleavage of 0.831.
Variant GGCCGGCCUGGCCCCAGCCUCCUCGCUGGCGCCGGCUGGGCAACAUUCCGAGGGGACCGUCCCCUCGGUAAUGGCGAAUGGGACCCA [A8C U12C] has a self-cleavage of 0.208.
Variant GGCCGGCCUGGUCCCAGCCUCCUCGCUGGCGCCGGCUGGGCAACAUUCCGAGGGGACCGUCCCCUCGGUAAUGGCGAAUGGAACCCA [A8C G82A] has a self-cleavage of 0.172.
GGCCGGCCUGGUCCCAGCCUCCUCGCUGGCGCCGGCUGGGCAACAUUCCGAGGGCACCGUCCCCUCGGUAAUGGCGAAUGGGACCCA [A8C G55C] showed a self-cleavage of 1.03.
GGCCGGCCUGGUCCCAGCCUCCUCGCUGGCGCCGGCUGGGCAACAUUCCGAGGGUACCGUCCCCUCGGUAAUGGCGAAUGGGACCCA [A8C G55U] showed a self-cleavage of 0.831.
GGCCGGCCUGGUCCCAGCCUCCGCGCUGGCGCCGGCUGGGCAACAUUCCGAGGGGACCGUCCCCUCGGUAAUGGCGAAUGGGACCCA [A8C U23G] gave a self-cleavage of 0.332.
In the case of GGCCGGCCUGGUCCCAGCCUCCUCGCUGGCGCCGGCUGGGCAACAUUCCGAGCGGACCGUCCCCUCGGUAAUGGCGAAUGGGACCCA [A8C G53C], the self-cleavage is reported as 0.739.
